Target: the molecule itself
Assay: cryo-EM structure; purified rP2X7 in 20 mM Hepes pH 7.0, 100 mM NaCl, 0.5 mM C12M (DDM), incubated 1 hour with small-molecule antagonist (about 200 to 400 uM); six antagonist-bound structures at 2.2 to 2.7 A

B1: full-length, wild-type rat P2X7 receptor (receptor, UniProt Q64663 1-595, looked up)
chain: MPACCSWNDVFQYETNKVTRIQSVNYGTIKWILHMTVFSYVSFALMSDKLYQRKEPLISSVHTKVKGVAEVTENVTEGGVTKLVHGIFDTADYTLPLQGNSFFVMTNYLKSEGQEQKLCPEYPSRGKQCHSDQGCIKGWMDPQSKGIQTGRCIPYDQKRKTCEIFAWCPAEEGKEAPRPALLRSAENFTVLIKNNIDFPGHNYTTRNILPGMNISCTFHKTWNPQCPIFRLGDIFQEIGENFTEVAVQGGIMGIEIYWDCNLDSWSHRCQPKYSFRRLDDKYTNESLFPGYNFRYAKYYKENGMEKRTLIKAFGVRFDILVFGTGGKFDIIQLVVYIGSTLSYFGLATVCIDLIINTYASTCCRSRVYPSCKCCEPCAVNEYYYRKKCEPIVEPKPTLKYVSFVDEPHIWMVDQQLLGKSLQDVKGQEVPRPQTDFLELSRLSLSLHHSPPIPGQPEEMQLLQIEAVPRSRDSPDWCQCGNCLPSQLPENRRALEELCCRRKPGQCITTSELFSKIVLSREALQLLLLYQEPLLALEGEAINSKLRHCAYRSYATWRFVSQDMADFAILPSCCRWKIRKEFPKTQGQYSGFKYPY
notes: P2X7 receptor (P2X purinoceptor 7), rat; also called rP2X7; source: HEK293 GNTI- cells, BacMam baculovirus transduction; purified (DDM/CHS solubilisation, TALON resin, HRV 3C digestion, Superdex 200 SEC)
- stoichiometry N: 3

Source: article PMC11451537, “P2X7 receptors exhibit at least three modes of allosteric antagonism” (Science Advances, 2024)
